# Test results reported in paper doi:10.1101/2024.12.02.626350 (bioRxiv, 2024).
# T1: nicotinic acetylcholine receptor (nAChR) δ subunit, muscle-type, Torpedo (Tetronarce californica, UniProt P02718 22-522)
# T1 sequence: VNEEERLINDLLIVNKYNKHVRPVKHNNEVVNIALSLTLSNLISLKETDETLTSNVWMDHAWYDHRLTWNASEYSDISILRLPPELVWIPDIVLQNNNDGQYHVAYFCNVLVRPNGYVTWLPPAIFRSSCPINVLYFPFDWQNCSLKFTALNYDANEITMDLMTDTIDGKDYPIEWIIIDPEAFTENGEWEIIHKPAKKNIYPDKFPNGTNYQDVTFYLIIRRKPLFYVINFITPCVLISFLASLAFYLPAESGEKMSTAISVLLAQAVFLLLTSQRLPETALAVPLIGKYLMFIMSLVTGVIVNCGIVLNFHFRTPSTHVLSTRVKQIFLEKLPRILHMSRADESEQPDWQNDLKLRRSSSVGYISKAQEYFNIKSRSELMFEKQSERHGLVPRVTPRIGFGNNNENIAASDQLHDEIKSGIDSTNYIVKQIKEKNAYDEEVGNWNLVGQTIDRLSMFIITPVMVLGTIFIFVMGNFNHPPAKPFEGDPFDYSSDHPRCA
# B1: nicotinic acetylcholine receptor (nAChR) α subunit, muscle-type, Torpedo (natural protein)
# chain: SEHETRLVANLLENYNKVIRPVEHHTHFVDITVGLQLIQLISVDEVNQIVETNVRLRQQWIDVRLRWNPADYGGIKKIRLPSDDVWLPDLVLYNNADGDFAIVHMTKLLLDYTGKIMWTPPAIFKSYCEIIVTHFPFDQQNCTMKLGIWTYDGTKVSISPESDRPDLSTFMESGEWVMKDYRGWKHWVYYTCCPDTPYLDITYHFIMQRIPLYFVVNVIIPCLLFSFLTGLVFYLPTDSGEKMTLSISVLLSLTVFLLVIVELIPSTSSAVPLIGKYMLFTMIFVISSIIITVVVINTHHRSPSTHTMPQWVRKIFIDTIPNVMFFSTMKRASKEKQENKIFADDIDISDISGKQVTGEVIFQTPLIKNPDVKSAIEGVKYIAEHMKSDEESSNAAEEWKYVAMVIDHILLCVFMLICIIGTVSVFAGRLIELSQEG
# B2: nicotinic acetylcholine receptor (nAChR) β subunit, muscle-type, Torpedo (natural protein)
# chain: SVMEDTLLSVLFETYNPKVRPAQTVGDKVTVRVGLTLTNLLILNEKIEEMTTNVFLNLAWTDYRLQWDPAAYEGIKDLRIPSSDVWQPDIVLMNNNDGSFEITLHVNVLVQHTGAVSWQPSAIYRSSCTIKVMYFPFDWQNCTMVFKSYTYDTSEVTLQHALDAKGEREVKEIVINKDAFTENGQWSIEHKPSRKNWRSDDPSYEDVTFYLIIQRKPLFYIVYTIIPCILISILAILVFYLPPDAGEKMSLSISALLAVTVFLLLLADKVPETSLSVPIIIRYLMFIMILVAFSVILSVVVLNLHHRSPNTHTMPNWIRQIFIETLPPFLWIQRPVTTPSPDSKPTIISRANDEYFIRKPAGDFVCPVDNARVAVQPERLFSEMKWHLNGLTQPVTLPQDLKEAVEAIKYIAEQLESASEFDDLKKDWQYVAMVADRLFLYVFFVICSIGTFSIFLDASHNVPPDNPFA
# Key:
# [1] = target: B2; assay: cryo-EM structure
# [2] = target: T1, nicotinic acetylcholine receptor …; assay: cryo-EM structure
Binder,binding result [1],binding result [2]
B1,binds,–
B2,–,binds
